Like-named read-outs stand apart in the source and are kept apart here.
B3: VEGF121 (hVEGF121, aa 207-327) (ligand)
chain: APMAEGGGQNHHEVVKFMDVYQRSYCHPIETLVDIFQEYPDEIEYIFKPSCVPLMRCGGCCNDEGLECVPTEESNITMQIMRIKPHQGQHIGEMSFLQHNKCECRPKKDRARQEKCDKPRR
B4: REGN3, full-length VEGF Trap (aflibercept) (Fc fusion, human, UniProt P17948 129-231, looked up, not shown: a dimerising Fc or GST)
chain: SDTGRPFVEMYSEIPEIIHMTEGRELVIPCRVTSPNITVTLKKFPLDTLIPDGKRIIWDSRKGFIISNATYKEIGLLTCEATVNGHLYKTNYLTHRQTNTIIDVVLSPSHGIELSVGEKLVLNCTARTELNVGIDFNWEYPSSKHQHKKLVNRDLKTQSGSEMKKFLSTLTIDGVTRSDQGLYTCAASSGLMTKKNSTFVRVHEK
notes: range 129-231;range 226-327; also called Eylea; VEFGR1d2-VEGFR2d3 VEGF Trap
B5: human VEGF165 (REGN110) (ligand)
chain: APMAEGGGQNHHEVVKFMDVYQRSYCHPIETLVDIFQEYPDEIEYIFKPSCVPLMRCGGCCNDEGLECVPTEESNITMQIMRIKPHQGQHIGEMSFLQHNKCECRPKKDRARQENPCGPCSERRKHLFVQDPQTCKCSCKNTDSRCKARQLELNERTCRCDKPRR
notes: It is treated here as the same molecule; also called hVEGF165; hVEGF165(M1-R191)

Tests used:
[1] = biological target: chimeric VEGFR1 receptors on HEK293/D9/Flt-IL18Rα/Flt-IL18Rβ clone V3H9 cells (UniProt P17948); experiment: cell-based or functional assay
[2] = biological target: chimeric VEGFR1 receptors on HEK293/D9/Flt-IL18Rα/Flt-IL18Rβ clone V3H9 cells (UniProt P17948); experiment: cell-based or functional assay; remark: listed apart in the source
[3] = biological target: chimeric VEGFR1 receptors on HEK293/D9/Flt-IL18Rα/Flt-IL18Rβ clone V3H9 cells (UniProt P17948); experiment: cell-based or functional assay; remark: listed apart in the source
[4] = biological target: VEGF121 (hVEGF121, aa 207-327) (human), P15692; experiment: cell-based or functional assay
[5] = biological target: T1, chimeric VEGFR1 receptors on HEK293/D9/Flt-IL18Rα/Flt-IL18Rβ clone V3H9 cells (UniProt P17948 27-758; Q13478 351-541; P17948 27-758; O95256 378-599, limits assumed); experiment: cell-based or functional assay
[6] = biological target: T1, chimeric VEGFR1 receptors on …; experiment: cell-based or functional assay; remark: listed apart in the source
[7] = biological target: T1, chimeric VEGFR1 receptors on …; experiment: cell-based or functional assay; remark: listed apart in the source
[8] = biological target: B5; experiment: SPR, Biacore, 25 C; trap captured on anti-VEGFR1 mAb surface, hVEGF165 injected; 1:1 fit
Experimental: (§1) Experimental Procedure. Equilibrium dissociation constants (KD values) for human VEGF₁₆₅ binding to various purified VEGF mini-trap constructs were determined using a real-time surface plasmon resonance biosensor using a Biacore 3000 instrument. All binding studies were performed in 10 mM HEPES, 150 mM NaCl, 3 mM EDTA, and 0.05% v/v Surfactant Tween-20, pH 7.4 (HBS-ET) running buffer at 25° C. The Biacore sensor surface was first derivatized by amine coupling with a monoclonal mouse anti-VEGFR1 antibody to capture VEGF mini-trap constructs. Binding studies were performed on the human VEGF reagent, human VEGF₁₆₅ (human VEGF₁₆₅; SEQ ID NO: 31). Different concentrations of VEGF₁₆₅ reagent, prepared in HBS-ET running buffer (2 nM — 62.5 pM; 2-fold serial dilution for human VEGF₁₆₅), were injected over an anti-VEGFR1-captured VEGF mini-trap construct surface for 1.8 minutes at a flow rate of 90 μL/minute, while the dissociation of VEGF mini-trap constructs bound VEGF₁₆₅ reagent was monitored for 60 minutes in HBS-ET running buffer. Kinetic association (kₐ) and dissociation (kd) rate constants were determined by fitting the real-time sensorgrams to a 1:1 binding model using Scrubber 2.0c curve fitting software. Binding dissociation equilibrium constants (KD) and dissociative half-lives (t½) were calculated from the kinetic rate constants as: […]

[9] = biological target: T2, VEGF110 (hVEGF110, aa 207-318) (human, UniProt P15692 207-318); experiment: cell-based or functional assay
T2 sequence (looked up): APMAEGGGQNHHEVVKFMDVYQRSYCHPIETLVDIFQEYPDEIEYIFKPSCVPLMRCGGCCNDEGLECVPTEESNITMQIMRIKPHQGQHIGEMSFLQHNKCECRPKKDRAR

[10] = biological target: B3; experiment: cell-based or functional assay
[11] = biological target: B5; experiment: SPR, Biacore 3000, 25 C; trap captured on anti-VEGFR1 mAb surface, hVEGF165 injected; 1:1 fit
[12] = biological target: B5; experiment: SPR, Biacore, 25 C; trap captured on anti-VEGFR1 mAb surface, hVEGF165 injected
Experimental: as §1

[13] = biological target: B5; experiment: SPR, Biacore 3000, 25 C; trap captured on anti-VEGFR1 mAb surface, hVEGF165 injected
[14] = biological target: T2, VEGF110 (hVEGF110, aa 207-318); experiment: cell-based or functional assay; remark: listed apart in the source
[15] = biological target: B3; experiment: cell-based or functional assay
[16] = biological target: B5; experiment: cell-based or functional assay
[17] = biological target: T2, VEGF110 (hVEGF110, aa 207-318); experiment: cell-based or functional assay; remark: listed apart in the source
[18] = biological target: B3; experiment: cell-based or functional assay
[19] = biological target: B5; experiment: cell-based or functional assay; remark: listed apart in the source
[20] = biological target: B4; experiment: SPR, Biacore, 25 C; trap captured on anti-VEGFR1 mAb surface, hVEGF165 injected; 1:1 fit
Experimental: as §1

[21] = biological target: B4; experiment: SPR, Biacore 3000, 25 C; trap captured on anti-VEGFR1 mAb surface, hVEGF165 injected; 1:1 fit
[22] = biological target: T2, VEGF110 (hVEGF110, aa 207-318); experiment: cell-based or functional assay; remark: listed apart in the source
[23] = biological target: B5; experiment: cell-based or functional assay; remark: listed apart in the source
[24] = biological target: B3; experiment: cell-based or functional assay

T1 sequence (P17948 other isoform, or with tags, fused parts or gaps mutant limits assumed, chain 1 of 2): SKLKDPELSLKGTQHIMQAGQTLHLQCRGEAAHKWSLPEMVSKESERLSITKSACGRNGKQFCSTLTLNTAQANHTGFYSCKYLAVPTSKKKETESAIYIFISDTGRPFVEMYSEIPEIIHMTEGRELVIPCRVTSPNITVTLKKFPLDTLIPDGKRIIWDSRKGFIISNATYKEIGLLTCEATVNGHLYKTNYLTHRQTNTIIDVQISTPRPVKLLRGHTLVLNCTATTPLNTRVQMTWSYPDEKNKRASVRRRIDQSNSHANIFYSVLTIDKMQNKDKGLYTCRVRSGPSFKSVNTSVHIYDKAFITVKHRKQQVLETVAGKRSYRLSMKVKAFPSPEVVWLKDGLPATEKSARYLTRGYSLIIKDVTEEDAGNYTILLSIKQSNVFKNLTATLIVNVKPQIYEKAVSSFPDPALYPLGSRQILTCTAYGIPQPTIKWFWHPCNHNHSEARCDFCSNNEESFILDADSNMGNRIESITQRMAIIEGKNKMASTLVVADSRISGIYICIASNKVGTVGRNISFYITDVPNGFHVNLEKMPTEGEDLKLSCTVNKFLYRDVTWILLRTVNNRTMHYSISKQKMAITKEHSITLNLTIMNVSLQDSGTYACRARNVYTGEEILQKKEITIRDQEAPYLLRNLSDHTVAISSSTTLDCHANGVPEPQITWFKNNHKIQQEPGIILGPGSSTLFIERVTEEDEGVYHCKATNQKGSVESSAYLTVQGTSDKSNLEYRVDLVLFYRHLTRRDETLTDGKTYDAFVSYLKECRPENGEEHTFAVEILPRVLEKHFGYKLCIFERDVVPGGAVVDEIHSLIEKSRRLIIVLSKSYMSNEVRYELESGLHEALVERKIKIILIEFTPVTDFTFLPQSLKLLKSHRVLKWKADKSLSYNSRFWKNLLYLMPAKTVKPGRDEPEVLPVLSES
T1 sequence (P17948 other isoform, or with tags, fused parts or gaps mutant limits assumed, chain 2 of 2): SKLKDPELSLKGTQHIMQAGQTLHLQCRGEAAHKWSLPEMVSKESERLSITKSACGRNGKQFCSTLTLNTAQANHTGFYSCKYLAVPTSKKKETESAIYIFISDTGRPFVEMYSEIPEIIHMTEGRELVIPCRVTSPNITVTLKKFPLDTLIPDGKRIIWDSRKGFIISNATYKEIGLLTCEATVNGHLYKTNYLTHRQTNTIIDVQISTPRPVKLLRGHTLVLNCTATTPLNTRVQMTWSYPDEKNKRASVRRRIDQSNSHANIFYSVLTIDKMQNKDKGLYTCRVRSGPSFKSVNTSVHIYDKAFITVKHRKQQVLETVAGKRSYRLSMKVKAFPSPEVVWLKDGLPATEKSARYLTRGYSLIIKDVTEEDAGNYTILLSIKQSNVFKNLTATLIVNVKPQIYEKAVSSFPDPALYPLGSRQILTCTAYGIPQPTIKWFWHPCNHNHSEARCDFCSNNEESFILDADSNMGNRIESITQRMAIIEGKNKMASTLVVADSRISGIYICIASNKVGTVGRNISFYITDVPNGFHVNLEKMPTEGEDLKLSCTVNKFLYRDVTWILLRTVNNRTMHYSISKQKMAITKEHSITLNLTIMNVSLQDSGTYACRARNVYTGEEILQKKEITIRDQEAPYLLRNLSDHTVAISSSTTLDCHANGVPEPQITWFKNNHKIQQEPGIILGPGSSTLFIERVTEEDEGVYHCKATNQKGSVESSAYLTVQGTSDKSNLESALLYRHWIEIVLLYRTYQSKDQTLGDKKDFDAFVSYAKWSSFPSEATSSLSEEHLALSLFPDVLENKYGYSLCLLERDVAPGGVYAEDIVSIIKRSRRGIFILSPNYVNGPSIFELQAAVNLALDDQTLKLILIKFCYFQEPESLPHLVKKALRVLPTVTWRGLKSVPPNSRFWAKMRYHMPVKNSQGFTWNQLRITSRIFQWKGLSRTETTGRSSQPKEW
Sequence of chimeric VEGFR1 receptors on HEK293/D9/Flt-IL18Rα/Flt-IL18Rβ clone V3H9 cells (UniProt P17948) (P17948 other isoform, or with tags, fused parts or gaps mutant limits assumed, chain 1 of 2): as the sequence (P17948 other isoform, or with tags, fused parts or gaps mutant limits assumed, chain 1 of 2) above
Sequence of chimeric VEGFR1 receptors on HEK293/D9/Flt-IL18Rα/Flt-IL18Rβ clone V3H9 cells (UniProt P17948) (P17948 other isoform, or with tags, fused parts or gaps mutant limits assumed, chain 2 of 2): as the sequence (P17948 other isoform, or with tags, fused parts or gaps mutant limits assumed, chain 2 of 2) above

“VEGF110 (hVEGF110, aa 207-318) (from UniProt P15692 207-318) (ligand)” was tested. Which EC50 (M), activation of HEK293/D9/Flt-IL18Ra/Flt-IL18Rb (luciferase) [1] did it give?
The EC50 (M), activation of HEK293/D9/Flt-IL18Ra/Flt-IL18Rb (luciferase) was 2.4e-11 M.

What about the EC50 (M), activation of HEK293/D9/Flt-IL18Ra/Flt-IL18Rb (luciferase) [2] of the same molecule?
Its EC50 (M), activation of HEK293/D9/Flt-IL18Ra/Flt-IL18Rb (luciferase) is 1.14e-11 M.

What about the EC50 (M), activation of HEK293/D9/Flt-IL18Ra/Flt-IL18Rb (luciferase) [3] of the same molecule?
The EC50 (M), activation of HEK293/D9/Flt-IL18Ra/Flt-IL18Rb (luciferase) was 1.51e-11 M.

B1: REGN7483^F (homodimer mini-trap, FabRICATOR cleaved from aflibercept) (receptor)
chain: SDTGRPFVEMYSEIPEIIHMTEGRELVIPCRVTSPNITVTLKKFPLDTLIPDGKRIIWDSRKGFIISNATYKEIGLLTCEATVNGHLYKTNYLTHRQTNTIIDVVLSPSHGIELSVGEKLVLNCTARTELNVGIDFNWEYPSSKHQHKKLVNRDLKTQSGSEMKKFLSTLTIDGVTRSDQGLYTCAASSGLMTKKNSTFVRVHEKDKTHTCPPCPAPELLG
modifications: here or on the partner: N-linked glycans at N36, N68, N123, N196 (Table C)
With B1 as the molecule, how does the IC50 (M), inhibition of VEGFR1 signaling (luciferase), 20 pM VEGF121 [4] read?
Its IC50 (M), inhibition of VEGFR1 signaling (luciferase), 20 pM VEGF121 is 9.27e-12 M.

B2: REGN7483^R (homodimer mini-trap, recombinant) (receptor)
chain: SDTGRPFVEMYSEIPEIIHMTEGRELVIPCRVTSPNITVTLKKFPLDTLIPDGKRIIWDSRKGFIISNATYKEIGLLTCEATVNGHLYKTNYLTHRQTNTIIDVVLSPSHGIELSVGEKLVLNCTARTELNVGIDFNWEYPSSKHQHKKLVNRDLKTQSGSEMKKFLSTLTIDGVTRSDQGLYTCAASSGLMTKKNSTFVRVHEKDKTHTCPPCPAPELLG
modifications: here or on the partner: N-linked glycans at N36, N68, N123, N196 (Table C)
How did the IC50 (M), inhibition of VEGFR1 signaling (luciferase), 20 pM VEGF121 [4] turn out when B2 was run?
Its IC50 (M), inhibition of VEGFR1 signaling (luciferase), 20 pM VEGF121 is 8.79e-12 M.

With B3 as the molecule, how does the “EC50 (M), activation of HEK293/D9/Flt-IL18Ra/Flt-IL18Rb (luciferase)” value [5] read?
Its value is 2.12e-11 M.

And the “EC50 (M), activation of HEK293/D9/Flt-IL18Ra/Flt-IL18Rb (luciferase)” value [6]?
Its value is 4.4e-11 M.

And the “EC50 (M), activation of HEK293/D9/Flt-IL18Ra/Flt-IL18Rb (luciferase)” value [7]?
Its value is 2.56e-11 M.

Which “t1/2 (dissociative half-life)” value [8] does the source give for B4 here?
Its value is at least 19.2 h.

And the “IC50 (M), inhibition of VEGFR1 signaling (luciferase), 20 pM VEGF110” value (“IC50 (M), inhibition … 20 pM VEGF110” for short) [9]?
The value was 1.53e-11 M.

And the “IC50 (M), inhibition of VEGFR1 signaling (luciferase), 20 pM VEGF121” value (from here on “IC50 (M), inhibition … 20 pM VEGF121”) [10]?
The value was 9.64e-12 M.

What about the “t½ (dissociative half-life)” value [11] of the same molecule?
Its value is at least 19.2 h.

What about the “2nM hVEGF165 Bound” value [12] of the same molecule?
The value was 29 RU.

What about the “100 nM hVEGF165 Bound” value [13] of the same molecule?
Its value is 21 RU.

And the “IC50 (M), inhibition … 20 pM VEGF110” value [14]?
Its value is 1.53e-11 M.

And the “IC50 (M), inhibition … 20 pM VEGF121” value [15]?
The value was 8.94e-12 M.

What about the “IC50 (M), inhibition of VEGFR1 signaling (luciferase), 20 pM VEGF165” value [16] of the same molecule?
Its value is 1.18e-11 M.

And the “IC50 (M), inhibition … 20 pM VEGF110” value [17]?
Its value is 1.15e-11 M.

What about the “IC50 (M), inhibition … 20 pM VEGF121” value [18] of the same molecule?
Its value is 1.26e-11 M.

What about the “IC50 (M), inhibition of VEGFR1 signaling (luciferase), 20 pM VEGF165” value [19] of the same molecule?
Its value is 2.09e-11 M.

For B5, which Kd [20] is on record?
The Kd was at most 0.00127 nM.

And the Kd [21]?
The Kd was at most 0.00179 nM.

What about the “EC50 (M), activation of HEK293/D9/Flt-IL18Ra/Flt-IL18Rb (luciferase)” value [6] of the same molecule?
Its value is 4.3e-11 M.

B6: REGN112 (receptor)
chain: SDTGRPFVEMYSEIPEIIHMTEGRELVIPCRVTSPNITVTLKKFPLDTLIPDGKRIIWDSRKGFIISNATYKEIGLLTCEATVNGHLYKTNYLTHRQTNTIIDVVLSPSHGIELSVGEKLVLNCTARTELNVGIDFNWEYPSSKHQHKKLVNRDLKTQSGSEMKKFLSTLTIDGVTRSDQGLYTCAASSGLMTKKNSTFVRVHEKDKTHTCPPC
With B6 as the molecule, how does the “IC50 (read off the curve); VEGFR1 reporter luciferase with 20 pM VEGF110 constant” value [22] read?
The value was about 1e-10 M.

What about the “IC50 (read off the curve); VEGFR1 reporter luciferase with 40 pM VEGF165 constant” value [23] of the same molecule?
The value was about 2e-10 M.

And the “IC50 (read off the curve); VEGFR1 reporter luciferase with 40 pM VEGF121 constant” value [24]?
The value was about 1e-10 M.
